One block for each molecule: values may come before it. Non-standard residues stand in square brackets, D forms with d. Residues, ends and D or L forms follow the SMILES beside them. *: point of attachment. Dnp = O=[N+]([O-])c1ccc(*)c([N+](=O)[O-])c1; 2Abz = Nc1ccccc1C(=O)O
Experiments:
thermolysin = thermolysin (UniProt P00800)
[1] = target: His6-tagged protealysin (Serratia proteamaculans)
[2] = assay type: physicochemical; conditions: kinetic, from DMSO stock (6 µl + 500 µl), 50 mM Tris-HCl pH 7.4, room temperature, 24 h, spectrophotometric at 365 nm
Experimental: The substrate sorption on labware complicated the measurement of the Abz-RSVIK(Dnp) solubility since the standard approach based on serial dilutions and identification of the linear range of the experimental concentration-dilution factor relationship could not be used. The substrate solubility was evaluated by periodic spectrophotometric quantitation of its dilutions immediately prepared from the stock in DMSO for one day. Up to 130 µM, the substrate solutions remained stable for 24 h (Supplementary Fig. S3); however, starting from 150 µM their optical density decreased with time. Thus, the substrate has reasonable water solubility and can be used in concentrations up to 130 µM.
The stock solutions (6 µl) in DMSO were supplemented with 500 µl of 50 mM Tris-HCl (pH 7.4). The solutions were incubated at room temperature and the concentration changes were controlled spectrophotometrically for 24 h (Supplementary Fig. S3).
Figure S3. Solubility of Abz-RSVIK(Dnp). Different substrate concentrations were prepared in microcentrifuge tubes (SSI). The stock solution was diluted with DMSO 1.3-20 times. The resulting solutions (6 µl) were supplemented with 500 µl of 50 mM Tris-HCl (pH 7.4). […] A. Measured substrate concentrations for all dilutions and time periods. B. Relationship between substrate concentration and stock quantity 5 h after dilution. […]

protealysin (PLN) = test: 2.5 nM PLN in 10 mM NH4HCO3; conditions: Serratia proteamaculans, 37 °C, up to 40 min
thermolysin (TLN) = test: 7.5 nM TLN in 10 mM NH4HCO3; conditions: 37 °C, up to 40 min
[3] = substrate: CC[C@H](C)[C@H](NC(=O)[C@@H](NC(=O)[C@H](CO)NC(=O)[C@H](CCCNC(=N)N)NC(=O)c1ccccc1N)C(C)C)C(=O)N[C@@H](CCCCNc1ccc([N+](=O)[O-])cc1[N+](=O)[O-])C(=O)O; test: Protease activity assay using Abz-RSVIK(Dnp), hydrolysis kinetic parameters, thermolysin; assay type: biochemical; conditions: other: thermolysin 2.5 nM, 37 °C, 50 mM Tris-HCl pH 7.4, substrate 2–130 mM as printed, fluorescence ex 320/em 420 nm, Michaelis-Menten fit, two independent experiments with triplicates
Experimental: Desired substrate concentrations were obtained by dilution of the stock in DMSO in 50 mM Tris-HCl (pH 7.4).
For the activity assay, 100 µl of the substrate solution at 2–130 mM in 50 mM Tris-HCl (pH 7.4) was added into a well of a black 96-well plate. After incubation at 37 °C for 10 min, 25 µl of the substrate were taken away and replaced with 25 µl of the enzyme solution in the same buffer preheated at 37 °C, and time-related fluorescence changes were monitored on an Infinite M200 Pro (Tecan, Switzerland). Measurements were taken at 37 °C every 10 s for 2–5 min at the excitation and emission wavelengths of 320 and 420 nm, respectively. Fluorescence varied linearly for 3 min. The initial hydrolysis rates were determined from the data obtained within the first 95 s of the reaction. The concentrations of PLN and TLN in the reaction mix were 2.5 nM. In parallel with the hydrolysis rate measurements, the control was conducted with the buffer added to a well instead of an enzyme solution. The main goal of this control was to determine the substrate concentration in the reaction mix. After the incubation, the substrate solution was transferred into a spectrophotometer cell to measure its optical density at 365 nm. The concentration calculated from the obtained OD was taken as the initial substrate concentration in the hydrolysis reaction.
A calibration curve was plotted to convert the obtained relative fluorescence data into the hydrolyzed substrate concentration. […] The course of the reaction was followed by fluorescence changes as described above. The hydrolysis was considered as complete when the fluorescence signal remained steady even after an extra portion of the enzyme was added (Supplementary Fig. S4). After the incubation, serial dilutions of the reaction mix were made, introduced into wells of a 96-well plate and fluorescence was measured as described above. 2,4-Dinitrophenyl was quantified spectrophotometrically in each well as described above. The resulting values were used to plot a calibration curve in coordinates of relative fluorescence units, μM. […]

Molecule: 2-aminobenzoyl-L-arginyl-L-seryl-L-valyl-L-isoleucyl-L-(ε-2,4-dinitrophenyl)lysine (peptide)
KM of hydrolysis of Abz-RSVIK(Dnp) at 37 °C (initial rates fitted to the Michaelis-Menten equation; 2.5 nM enzyme, 50 mM Tris-HCl pH 7.4) (thermolysin): 33 μM | KM of hydrolysis of Abz-RSVIK(Dnp) at 37 °C (initial rates fitted to the Michaelis-Menten equation; 2.5 nM enzyme, 50 mM Tris-HCl pH 7.4) [1]: 35 μM

Molecule: CC[C@H](C)[C@H](NC(=O)[C@@H](NC(=O)[C@H](CO)NC(=O)[C@H](CCCNC(=N)N)NC(=O)c1ccccc1N)C(C)C)C(=O)N[C@@H](CCCCNc1ccc([N+](=O)[O-])cc1[N+](=O)[O-])C(=O)O [Abz-RSVIK(Dnp), 2-aminobenzoyl-L-arginyl-L-seryl-L-valyl-L-isoleucyl-L-(ε-2,4-dinitrophenyl)lysine] (H-[2Abz]RSVIK(Dnp)-OH)
Solubility: concentration from which optical density decreased with time [2]: ≥ 150 µM

cleaved bond (protealysin (PLN)): Ser-Val, 20 min | cleaved bond (thermolysin (TLN)): Ser-Val, 20 min
Molecule: Abz-Arg-Ser-Val-Ile-Lys(Dnp)
not cleaved (protealysin (PLN)): products remain undetectable after the time period (40 min) | not cleaved (thermolysin (TLN)): products remain undetectable after the time period (40 min)

B1: thermolysin (TLN) (Bacillus thermoproteolyticus) (protein)
chain: ITGTSTVGVGRGVLGDQKNINTTYSTYYYLQDNTRGNGIFTYDAKYRTTLPGSLWADADNQFFASYDAPAVDAHYYAGVTYDYYKNVHNRLSYDGNNAAIRSSVHYSQGYNNAFWNGSQMVYGDGDGQTFIPLSGGIDVVAHELTHAVTDYTAGLIYQNESGAINEAISDIFGTLVEFYANKNPDWEIGEDVYTPGISGDSLRSMSDPAKYGDPDHYSKRYTGTQDNGGVHINSGIINKAAYLISQGGTHYGVSVVGIGRDKLGKIFYRALTQYLTPTSNFSQLRAAAVQSATDLYGSTSQEVASVKQAFDAVGVK
notes: purchased Serva, Germany
Km [3]: 33 ± 8 µM | kcat [3]: 7 ± 1 s⁻¹ | kcat/Km [3]: 210000 ± 60000 M⁻¹ s⁻¹
